Results taken from patent publication US20180273595A1 (REGENTS OF THE UNIVERSITY OF MICHIGAN, published 2018).
Primed or numbered codes have the meaning given here. Where no end group is shown, it is not given here. [ ]: non-standard residue; d: D form. The star is where a group is joined. Biotin = O=C1N[C@H]2[C@H](CS[C@H]2CCCCC(=O)*)N1; Pip′ = 4-methylpiperazine; βAla = NCCC(=O)O

Tests used:
[1] = biological target: T1, recombinant His-tagged full-length ERG (UniProt P11308 1-479, biotinylated with NHS-PEG4 biotin for the OctetRED assays); test: OctetRED; Kd table of synthetic peptides on ERG
T1 construct: mature; Baculovirus expression in SF9 cells, Ni-NTA purified; also called wild-type ERG; wtERG; not shown: His tag
T1 sequence (looked up): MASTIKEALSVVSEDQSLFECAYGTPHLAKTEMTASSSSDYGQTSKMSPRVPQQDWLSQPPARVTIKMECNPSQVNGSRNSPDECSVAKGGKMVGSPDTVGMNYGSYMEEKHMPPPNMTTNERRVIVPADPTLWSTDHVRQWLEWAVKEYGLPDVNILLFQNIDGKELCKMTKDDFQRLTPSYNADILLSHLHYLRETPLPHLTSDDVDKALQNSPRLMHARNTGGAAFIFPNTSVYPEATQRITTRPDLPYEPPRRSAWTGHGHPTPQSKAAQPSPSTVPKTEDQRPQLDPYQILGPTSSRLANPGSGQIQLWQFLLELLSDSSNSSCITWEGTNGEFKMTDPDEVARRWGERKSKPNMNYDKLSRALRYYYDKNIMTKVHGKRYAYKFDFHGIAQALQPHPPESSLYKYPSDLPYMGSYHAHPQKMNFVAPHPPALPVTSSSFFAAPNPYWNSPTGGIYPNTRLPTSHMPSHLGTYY

[2] = biological target: T1, recombinant His-tagged full-length ERG; test: Kd table of synthetic peptides on ERG; assay not given
[3] = biological target: T1, recombinant His-tagged full-length ERG; test: OctetRED BLI
[4] = biological target: T1, recombinant His-tagged full-length ERG; test: OctetRED biolayer interferometry, steady-state analysis
Experimental: (§1) The interaction coefficients between ERG and synthetic peptides or peptidomimetics were determined by biolayer interferometry technology using the Octet Red system (ForteBio). Purified ERG and GUS proteins were biotinylated by EZLink NHS-PEG4 Biotinylation Kit (Thermo Scientific) following the manufacturer's protocol and any unincorporated biotin was removed from the reactions with Zeba 2 ml desalt columns (Thermo). Biotinylated proteins (500 μg/ml) were then incubated with super streptavidin biosensors in binding buffer (20 mM HEPES pH 7.4, 150 mM NaCl), blocked with 10 μg/ml biocytin and washed three times in binding buffer. Peptides were serially diluted in binding buffer, mixed with the protein-coupled biosensors and peptidomimetic:protein association/dissociation was monitored for 10 min at 25° C. Nonspecific binding from the signal obtained from peptidomimetic:GUS interactions was subtracted from that of peptidomimetic:ERG interactions and baseline signal drift was controlled by monitoring immobilized ERG without peptide. Octet Red analysis software was used to analyze the data.

[5] = biological target: T2, TMPRSS2:ERG gene fusion product, endogenous in VCaP cells (UniProt P11308 33-479, limits assumed); test: pull-down of VCaP lysate with biotinylated peptide, ERG immunoblot
T2 construct: In cell lysates, in cells or in xenograft tumors; also called endogenous ERG; VCaP ERG
T2 sequence (looked up): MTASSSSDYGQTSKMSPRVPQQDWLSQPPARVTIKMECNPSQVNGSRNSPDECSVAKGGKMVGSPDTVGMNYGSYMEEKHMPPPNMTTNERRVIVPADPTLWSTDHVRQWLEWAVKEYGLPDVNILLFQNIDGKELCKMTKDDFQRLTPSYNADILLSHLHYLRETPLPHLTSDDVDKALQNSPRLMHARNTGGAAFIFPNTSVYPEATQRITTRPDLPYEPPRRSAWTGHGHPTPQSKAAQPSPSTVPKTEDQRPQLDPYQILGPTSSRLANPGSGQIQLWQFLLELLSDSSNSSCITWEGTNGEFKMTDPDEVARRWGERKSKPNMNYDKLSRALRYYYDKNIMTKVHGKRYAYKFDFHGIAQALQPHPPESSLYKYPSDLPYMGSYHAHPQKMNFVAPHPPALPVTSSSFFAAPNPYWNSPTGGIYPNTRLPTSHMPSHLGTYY
Experimental: Approximately 1 mg of soluble VCaP cell lysate prepared in RIPA buffer (Invitrogen) was incubated with varying amounts of biotinylated peptides for 2 hours at 4° C. HaloLink agarose beads (20 μl) were added to the peptide-lysate mixture and incubated for an additional 4 hours. Beads were then pelleted by centrifugation, washed three times in PBS-T and loaded into an SDSPAGE gel followed by Western blot analysis. Total VCaP cell lysate was loaded for positive control.

[6] = biological target: T1, recombinant His-tagged full-length ERG; test: OctetRED biolayer interferometry, biotinylated ERG on streptavidin sensors, peptide in solution
Experimental: as §1

[7] = biological target: T1, recombinant His-tagged full-length ERG; test: Kd table of synthetic peptides on ERG; assay not given; remark: listed apart in the source
[8] = biological target: T3, Halo-tagged full-length ERG (UniProt P11308 1-479); test: pull-down of in vitro translated Halo-tagged protein with biotinylated peptide, anti-Halo immunoblot [cont'd]
T3 construct: mature; In vitro transcription/translation in wheat germ lysate; also called Halo-ERG fusion protein; not shown: HaloTag (about 35 kDa), N-terminal
T3 sequence (looked up): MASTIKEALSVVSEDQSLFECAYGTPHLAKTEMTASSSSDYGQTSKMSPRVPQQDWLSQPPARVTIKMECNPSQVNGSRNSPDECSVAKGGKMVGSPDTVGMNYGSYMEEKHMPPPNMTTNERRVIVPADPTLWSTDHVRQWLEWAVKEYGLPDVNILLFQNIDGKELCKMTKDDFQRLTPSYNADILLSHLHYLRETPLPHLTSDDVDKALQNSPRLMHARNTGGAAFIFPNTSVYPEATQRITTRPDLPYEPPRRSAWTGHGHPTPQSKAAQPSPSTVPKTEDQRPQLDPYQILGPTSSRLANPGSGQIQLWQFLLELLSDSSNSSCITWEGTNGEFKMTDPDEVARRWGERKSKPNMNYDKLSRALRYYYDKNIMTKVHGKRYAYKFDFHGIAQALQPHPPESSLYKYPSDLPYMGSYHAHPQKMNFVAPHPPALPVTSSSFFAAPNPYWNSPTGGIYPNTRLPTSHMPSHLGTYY

[9] = biological target: T4, Halo-tagged full-length Fli1 (UniProt Q01543 1-452); test: as above
T4 construct: mature; not shown: Halo-tag at the N-terminus
T4 sequence (looked up): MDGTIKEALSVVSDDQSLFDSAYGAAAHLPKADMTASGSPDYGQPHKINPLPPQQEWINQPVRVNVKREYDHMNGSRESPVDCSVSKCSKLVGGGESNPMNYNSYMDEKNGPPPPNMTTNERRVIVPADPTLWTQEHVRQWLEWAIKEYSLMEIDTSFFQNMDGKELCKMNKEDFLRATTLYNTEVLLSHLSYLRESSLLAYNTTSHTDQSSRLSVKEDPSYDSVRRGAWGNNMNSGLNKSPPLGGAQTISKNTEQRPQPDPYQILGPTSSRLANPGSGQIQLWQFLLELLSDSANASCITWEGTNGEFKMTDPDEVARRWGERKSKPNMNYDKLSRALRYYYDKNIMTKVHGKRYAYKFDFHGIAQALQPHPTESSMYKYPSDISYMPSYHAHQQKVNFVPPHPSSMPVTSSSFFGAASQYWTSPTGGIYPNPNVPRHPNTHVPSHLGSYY

[10] = biological target: T5, Halo-tagged full-length ETV1 (UniProt P50549 1-477); test: as above
T5 construct: mature; not shown: Halo-tag at the N-terminus
T5 sequence (looked up): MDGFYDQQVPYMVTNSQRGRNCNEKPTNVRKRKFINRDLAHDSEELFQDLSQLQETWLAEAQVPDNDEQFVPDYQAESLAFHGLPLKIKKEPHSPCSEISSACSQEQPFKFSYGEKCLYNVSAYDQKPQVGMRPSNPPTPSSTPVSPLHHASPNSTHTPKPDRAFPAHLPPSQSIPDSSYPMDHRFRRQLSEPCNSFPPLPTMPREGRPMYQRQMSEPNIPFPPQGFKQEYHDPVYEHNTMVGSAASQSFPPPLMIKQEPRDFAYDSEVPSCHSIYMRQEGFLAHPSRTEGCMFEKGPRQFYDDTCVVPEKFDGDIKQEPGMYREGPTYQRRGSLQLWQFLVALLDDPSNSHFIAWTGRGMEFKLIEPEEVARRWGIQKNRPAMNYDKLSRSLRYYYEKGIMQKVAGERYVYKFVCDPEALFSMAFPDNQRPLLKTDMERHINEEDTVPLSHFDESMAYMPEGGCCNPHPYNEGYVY

[11] = biological target: T6, Halo-tagged full-length ETS1 (UniProt P14921 1-441); test: as above
T6 construct: mature; not shown: Halo-tag at the N-terminus
T6 sequence (looked up): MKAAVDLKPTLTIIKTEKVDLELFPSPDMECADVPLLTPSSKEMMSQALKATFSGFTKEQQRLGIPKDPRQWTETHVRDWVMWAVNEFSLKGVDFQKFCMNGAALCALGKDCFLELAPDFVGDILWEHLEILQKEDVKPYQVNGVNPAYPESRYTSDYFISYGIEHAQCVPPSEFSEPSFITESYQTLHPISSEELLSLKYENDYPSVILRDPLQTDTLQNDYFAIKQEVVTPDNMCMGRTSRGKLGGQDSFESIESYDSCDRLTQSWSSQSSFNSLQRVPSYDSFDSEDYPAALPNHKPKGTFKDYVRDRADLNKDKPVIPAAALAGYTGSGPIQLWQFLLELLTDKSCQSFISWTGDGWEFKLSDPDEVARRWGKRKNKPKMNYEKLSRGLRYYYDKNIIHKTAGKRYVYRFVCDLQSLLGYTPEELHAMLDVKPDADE

[12] = biological target: T7, Halo-tagged full-length ETV6 (UniProt P41212 1-452); test: as above
T7 construct: mature; not shown: Halo-tag at the N-terminus
T7 sequence (looked up): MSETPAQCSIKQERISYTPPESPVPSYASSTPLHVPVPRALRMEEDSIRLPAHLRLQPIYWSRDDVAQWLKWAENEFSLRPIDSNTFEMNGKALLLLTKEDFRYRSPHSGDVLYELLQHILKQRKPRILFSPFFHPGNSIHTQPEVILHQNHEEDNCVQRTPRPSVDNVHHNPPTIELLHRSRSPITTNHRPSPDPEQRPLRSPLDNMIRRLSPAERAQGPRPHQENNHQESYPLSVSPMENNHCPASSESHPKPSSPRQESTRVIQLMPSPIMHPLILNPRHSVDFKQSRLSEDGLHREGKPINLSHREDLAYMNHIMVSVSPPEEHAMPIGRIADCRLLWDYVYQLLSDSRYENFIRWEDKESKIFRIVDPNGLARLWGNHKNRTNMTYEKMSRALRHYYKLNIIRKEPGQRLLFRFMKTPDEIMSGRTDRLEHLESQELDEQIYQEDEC

[13] = biological target: T1, recombinant His-tagged full-length ERG; test: Kd table of synthetic peptides on ERG; assay not given; remark: listed apart in the source
[14] = biological target: T1, recombinant His-tagged full-length ERG; test: OctetRED BLI, biotinylated ERG on streptavidin sensors
Experimental: as §1

[15] = biological target: T1, recombinant His-tagged full-length ERG; test: OctetRED BLI, alanine substitution peptides of TAT-EIP1
[16] = biological target: T3, Halo-tagged full-length ERG; test: competitive pull-down: Halo-ERG with purified DNA-PKcs or GST-AR and peptide, HaloLink beads, immunoblot
Experimental: Halo-ERG fusion protein was expressed using in vitro transcription/translation system as described above. […] Protein mixtures were incubated with or without the peptides in PBS-T (0.1% Tween) at 4° C. overnight. […] The next day 10 μl of HaloLink beads were mixed with the protein-peptide mixture, incubated at RT for 1 hour, washed with 4× in PBS-T and eluted into SDS sample buffer. […] HaloLink beads without incubation with fusion proteins were used as negative controls.

## H-PPYL-NH2 (also called H2N-PPYL-NH2) [4PL-N]
[1]
  Kd: > 100 µM
[2]
  Kd: 94200 nM

## LSFGSLPGGRKKRRQRRRG [TAT-EIP2 cell-permeable peptide]
[3]
  Kd: 1110 nM

## LPPTFLY [scrambled peptide LPPTFLY]
[4]
  binding result: no binding (tested: 20 µM)

B1: biotinylated muEIP2 peptide (peptide)
peptide: LSAGSAP
modifications: also: biotin, position not given here
notes: also called biotin-muEIP2; mutant EIP2 (muEIP2)
[5]
  binding result: no binding (tested: 20 µM)

## LSAGSAP (Alanine substitution control) [muEIP2 synthetic peptide LSAGSAP]
[6]
  binding result: no binding (tested: 20 µM)

B2: LPPYLFT with 4-methylpiperazine (Pip) added (peptide)
peptide: LPPYLFT
modifications: not fully specified (N-terminus)
notes: also called more soluble version of EIP1
[7]
  Kd: 1700 nM

B3: Biotin-HSKINPT (peptide)
peptide: Biotin-HSKINPT
notes: Control of the pull-down with Biotin-LSFGSLP; also called control peptide Biotin-HSKINPT
[8]
  binding result: no binding
[9]
  binding result: no binding
[10]
  binding result: no binding
[11]
  binding result: no binding
[12]
  binding result: no binding

## [Pip′][βAla][βAla]PPYL-NH2 (not fully specified, also called Pip-βAβA-PPYL-NH2) [4PL-Pip2]
[7]
  Kd: 3000 nM

B4: PPYL with 4-methylpiperazine (Pip) added (peptide)
peptide: [Pip′]PPYL
modifications: not fully specified
notes: also called more soluble version of 4PL-A
[7]
  Kd: 3300 nM

## LPPYLFT [EIP1 synthetic peptide LPPYLFT]
[2]
  Kd: 2800 nM
[13]
  Kd: 972 nM
[14]
  Kd: 600 nM

## LPPYLFTGGRKKRRQRRRG (not fully specified, also called FITC-labeled TAT-EIP1) [TAT-EIP1 cell-permeable peptide]
[3]
  Kd: 680 nM

## LAPYLFTGGRKKRRQRRRG (also called P^2→A) [TAT-EIP1 with P2 to A substitution]
[15]
  fold increase in Kd against parental TAT-EIP1: > 100 fold

## LPPALFTGGRKKRRQRRRG (also called Y→A) [TAT-EIP1 with Y to A substitution]
[15]
  fold increase in Kd against parental TAT-EIP1: > 100 fold

## Ac-PPYL-NH2 (also called capped 4-mer peptide PPYL) [4PL-A (Ac-PPYL-NH2)]
[2]
  Kd: 1400 nM

## PPYE (not fully specified) [PPYE peptide (mutation of PPYL to PPYE)]
[7]
  binding result: no binding

B5: 7-mer LPPYLFT capped at the N-terminus only (Ac-LPPYLFT) (peptide)
peptide: Ac-LPPYLFT-OH
notes: Variant inferred from the sentence on capping
[2]
  Kd: 2800 nM

## LPPALFT (Alanine substitution control) [muEIP1 synthetic peptide LPPALFT]
[16]
  binding result: no binding (tested: 50 µM)
[6]
  binding result: no binding (tested: 20 µM)
